B1: Sestrin-2 (Homo sapiens), P58004 (parent)
chain: MIVADSECRAELKDYLRFAPGGVGDSGPGEEQRESRARRGPRGPSAFIPVEEVLREGAESLEQHLGLEALMSSGRVDNLAVVMGLHPDYFTSFWRLHYLLLHTDGPLASSWRHYIAIMAAARHQCSYLVGSHMAEFLQTGGDPEWLLGLHRAPEKLRKLSEINKLLAHRPWLITKEHIQALLKTGEHTWSLAELIQALVLLTHCHSLSSFVFGCGILPEGDADGSPAPQAPTPPSEQSSPPSRDPLNNSGGFESARDVEALMERMQQLQESLLRDEGTSQEEMESRFELEKSESLLVTPSADILEPSPHPDMLCFVEDPTFGYEDFTRRGAQAPPTFRAQDYTWEDHGYSLIQRLYPEGGQLLDEKFQAAYSLTYNTIAMHSGVDTSVLRRAIWNYIHCVFGIRYDDYDYGEVNQLLERNLKVYIKTVACYPEKTTRRMYNLFWRHFRHSEKVHVNLLLLEARMQAALLYALRAITRYMT
partner: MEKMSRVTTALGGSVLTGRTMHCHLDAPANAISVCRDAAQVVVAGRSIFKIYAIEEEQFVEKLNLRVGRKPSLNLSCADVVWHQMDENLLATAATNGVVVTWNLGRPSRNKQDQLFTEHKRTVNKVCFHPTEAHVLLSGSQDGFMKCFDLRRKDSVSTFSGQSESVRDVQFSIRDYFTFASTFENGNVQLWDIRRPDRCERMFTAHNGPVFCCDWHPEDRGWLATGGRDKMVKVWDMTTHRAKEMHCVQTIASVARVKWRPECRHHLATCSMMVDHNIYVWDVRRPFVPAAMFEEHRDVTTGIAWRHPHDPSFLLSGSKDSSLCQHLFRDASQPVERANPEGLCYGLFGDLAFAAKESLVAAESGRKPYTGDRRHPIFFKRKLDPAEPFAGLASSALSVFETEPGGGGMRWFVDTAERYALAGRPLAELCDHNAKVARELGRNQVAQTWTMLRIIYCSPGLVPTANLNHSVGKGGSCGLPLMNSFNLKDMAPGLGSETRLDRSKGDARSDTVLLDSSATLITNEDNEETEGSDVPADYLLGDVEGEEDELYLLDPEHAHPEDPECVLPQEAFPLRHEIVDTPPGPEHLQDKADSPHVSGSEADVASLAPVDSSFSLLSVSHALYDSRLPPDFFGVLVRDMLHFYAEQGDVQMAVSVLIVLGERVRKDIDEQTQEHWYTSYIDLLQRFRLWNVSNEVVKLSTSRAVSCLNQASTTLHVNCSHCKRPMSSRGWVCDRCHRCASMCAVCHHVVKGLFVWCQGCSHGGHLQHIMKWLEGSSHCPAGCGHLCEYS

Variants of: B1
Settings: with wdr24_human WDR24, Q96S15

Variant	effect of a mutation on the interaction
MIVADSECRAELKDYLRFAPGGVGDSGPGEEQRESRARRGPRGPSAFIPVEEVLREGAESLEQHLGLEALMSSGRVDNLAVVMGLHPDYFTSFWRLHYLLLHTDGPLASSWRHYIAIMAAARHQCSYLVGSHMAEFLQTGGDPEWLLGLHRAPEKLRKLSEINKLLAHRPWLITKEHIQALLKTGEHTWWLAELIQALVLLTHCHSLSSFVFGCGILPEGDADGSPAPQAPTPPSEQSSPPSRDPLNNSGGFESARDVEALMERMQQLQESLLRDEGTSQEEMESRFELEKSESLLVTPSADILEPSPHPDMLCFVEDPTFGYEDFTRRGAQAPPTFRAQDYTWEDHGYSLIQRLYPEGGQLLDEKFQAAYSLTYNTIAMHSGVDTSVLRRAIWNYIHCVFGIRYDDYDYGEVNQLLERNLKVYIKTVACYPEKTTRRMYNLFWRHFRHSEKVHVNLLLLEARMQAALLYALRAITRYMT [S190W]	disrupting interaction strength

Source: IntAct's records for PubMed 26449471
